Data taken from the supplement of paper PMC10567573.

B1: ZMYND11 (parent)
chain: YCSIKCQQEHWHAEHKRTCRRKR
B2: CAMK2D (parent)
chain: LLKHPNIVRLHDSISEEGFHYLVF

Variants of: B1
Assay: protein stability index of a GFP-peptide fusion (GPS, HEK-293T) (PSI 1-6); higher = more stable
Conditions: c terminus: native
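Further: lentivirally expressed fusions sorted by FACS into six bins by GFP to DsRed ratio, PSI derived from sequencing read proportions per bin multiplied by bin number.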

Going from YCSIKCQQEHWGAEHKRTCRRKR [H12G] to YCSIKCQQEHWHAEHKVTCRRKR [R17V], the protein stability index falls from 2.73 to 2.55.

Going from YRSIKCQQEHWHAEHKRTCRRKR [C2R] to YCSIKCQQEHWHAEHKRTCRRKD [R23D], the protein stability index falls from 3.01 to 1.86.

Compared with YCSKKCQQEHWHAEHKRTCRRKR [I4K], YCSYKCQQEHWHAEHKRTCRRKR [I4Y] is higher in protein stability index: 2.37 for the first, 3.92 for the second.

Going from YCSIKCQQEHWHAEHKRTCPRKR [R20P] to YCPIKCQQEHWHAEHKRTCRRKR [S3P], the protein stability index rises from 1.89 to 2.17.

Compared with YCSIKCQQEHWHAETKRTCRRKR [H15T], YCSIVCQQEHWHAEHKRTCRRKR [K5V] is lower in protein stability index: 2.41 for the first, 1.66 for the second.

Compared with YCSIQCQQEHWHAEHKRTCRRKR [K5Q], DCSIKCQQEHWHAEHKRTCRRKR [Y1D] is lower in protein stability index: 3.2 for the first, 2.58 for the second.

Variants of: B2
Assay: as above
Conditions: c terminus: a fixed tail appended

Going from LLKEPNIVRLHDSISEEGFHYLVF [H4E] to LLKGPNIVRLHDSISEEGFHYLVF [H4G], the protein stability index falls from 2.6 to 2.23.

First: LLKSPNIVRLHDSISEEGFHYLVF [H4S]
Second: LLKWPNIVRLHDSISEEGFHYLVF [H4W]
The protein stability index of the first is higher: 1.94 for the first, 1.44 for the second.

Compared with LLKAPNIVRLHDSISEEGFHYLVF [H4A], LLKHPNIVRLHDSISEEGFHYLVT [F24T] is lower in protein stability index: 3.37 for the first, 1.15 for the second.

Compared with LLKHPNIVRLHDSISEEGFHYLVP [F24P], LLKHPNIVRLHDSISEEGFHYLVD [F24D] is higher in protein stability index: 1.98 for the first, 2.21 for the second.

Going from LLKHPNIVRLHDSISEEGAHYLVF [F19A] to LLKHPNIVRLHDSISEEGHHYLVF [F19H], the protein stability index falls from 1.81 to 1.73.

First: LLKHPNIVRLHDSISEEGQHYLVF [F19Q]
Second: LLKHPNIVRLHDSISEEGPHYLVF [F19P]
The protein stability index of the first is higher: 2.66 for the first, 1.53 for the second.

First: LLKHPNIVRLHDSMSEEGFHYLVF [I14M]
Second: LLKHPNIVRLHDSKSEEGFHYLVF [I14K]
The protein stability index of the first is lower: 1.18 for the first, 2.4 for the second.

First: LLKHPNIVRLHDSYSEEGFHYLVF [I14Y]
Second: LLKHPWIVRLHDSISEEGFHYLVF [N6W]
The protein stability index of the first is lower: 1.89 for the first, 2.75 for the second.

First: LLKHPDIVRLHDSISEEGFHYLVF [N6D]
Second: LLKHPVIVRLHDSISEEGFHYLVF [N6V]
The protein stability index of the first is lower: 1.76 for the first, 3.01 for the second.

Compared with LLKHPYIVRLHDSISEEGFHYLVF [N6Y], LLKHPIIVRLHDSISEEGFHYLVF [N6I] is lower in protein stability index: 3.11 for the first, 1.94 for the second.

First: LLKHPTIVRLHDSISEEGFHYLVF [N6T]
Second: LLKHPNIVRLHDSIIEEGFHYLVF [S15I]
The protein stability index of the first is lower: 3.24 for the first, 3.54 for the second.

Going from LLKHPNIVRLHDSIMEEGFHYLVF [S15M] to LLKHPNIVRLHDSICEEGFHYLVF [S15C], the protein stability index falls from 3.4 to 2.51.

Going from LLKHPNIVRLHDSIFEEGFHYLVF [S15F] to LLKHPNIVRLHDSISEEGFHCLVF [Y21C], the protein stability index falls from 2.56 to 2.

Going from LLKHPNIVRLHDSISEEGFHQLVF [Y21Q] to LLKHPNIVRLHDSISEEGFHHLVF [Y21H], the protein stability index falls from 2.39 to 2.03.

Compared with LIKHPNIVRLHDSISEEGFHYLVF [L2I], LVKHPNIVRLHDSISEEGFHYLVF [L2V] is lower in protein stability index: 3.93 for the first, 2.86 for the second.

Compared with LWKHPNIVRLHDSISEEGFHYLVF [L2W], LLKHPNIVRLHDSISEESFHYLVF [G18S] is lower in protein stability index: 3.25 for the first, 2.3 for the second.

Going from LLKHPNIVRLHDSISEEHFHYLVF [G18H] to LLKHPNIVRLHCSISEEGFHYLVF [D12C], the protein stability index rises from 1.78 to 3.3.

Going from LLKHPNIVRLHVSISEEGFHYLVF [D12V] to LLKHPNIVRLHRSISEEGFHYLVF [D12R], the protein stability index rises from 2.63 to 3.07.

First: LLKHPNIVRLHNSISEEGFHYLVF [D12N]
Second: LLKHPNIVRLHDSISEEGFAYLVF [H20A]
The protein stability index of the first is lower: 1.61 for the first, 1.73 for the second.

Compared with LLKHPNIVRLHDSISEEGFMYLVF [H20M], LLKHPNIVRLHDSISEEGFFYLVF [H20F] is higher in protein stability index: 2.05 for the first, 2.39 for the second.

First: LLKHPNIVRLHDSISEEGFTYLVF [H20T]
Second: LLKHCNIVRLHDSISEEGFHYLVF [P5C]
The protein stability index of the first is higher: 3.25 for the first, 2.29 for the second.

Compared with LLKHPNIARLHDSISEEGFHYLVF [V8A], LLKHPNIQRLHDSISEEGFHYLVF [V8Q] is lower in protein stability index: 2.64 for the first, 1.94 for the second.

Going from LLKHPNIFRLHDSISEEGFHYLVF [V8F] to LLKHPNIMRLHDSISEEGFHYLVF [V8M], the protein stability index rises from 1.47 to 2.59.

First: LLKHPNIGRLHDSISEEGFHYLVF [V8G]
Second: LLKHPNIVRLHDSISEEGFHYLMF [V23M]
The protein stability index of the first is lower: 2.79 for the first, 2.91 for the second.

First: SLKHPNIVRLHDSISEEGFHYLVF [L1S]
Second: ILKHPNIVRLHDSISEEGFHYLVF [L1I]
The protein stability index of the first is lower: 2.13 for the first, 3.14 for the second.

First: LLKHPNIVRLHDSISEMGFHYLVF [E17M]
Second: LLKHPNIVRLHDSISEAGFHYLVF [E17A]
The protein stability index of the first is higher: 4.04 for the first, 2.91 for the second.

First: LLKHPNIVRLHDSISEVGFHYLVF [E17V]
Second: LLKHPNIVRLHDSISESGFHYLVF [E17S]
The protein stability index of the first is lower: 2.47 for the first, 2.93 for the second.

First: LLKHPNIVRLHDSISEYGFHYLVF [E17Y]
Second: LLKHPNIVRLHDSISEQGFHYLVF [E17Q]
The protein stability index of the first is higher: 2.04 for the first, 1.84 for the second.

Going from LLKHPNIVALHDSISEEGFHYLVF [R9A] to LLKHPNIVRLHDSISAEGFHYLVF [E16A], the protein stability index rises from 2.1 to 2.88.

First: LLKHPNIVRLHDSISQEGFHYLVF [E16Q]
Second: LLKHPNIVRLHDSISLEGFHYLVF [E16L]
The protein stability index of the first is higher: 3.03 for the first, 2.47 for the second.

Going from LLKHPNIVRLHDSISKEGFHYLVF [E16K] to LLKHPNIVRLLDSISEEGFHYLVF [H11L], the protein stability index rises from 1.21 to 1.48.

First: LLKHPNIVRLCDSISEEGFHYLVF [H11C]
Second: LLKHPNIVRLTDSISEEGFHYLVF [H11T]
The protein stability index of the first is higher: 2.84 for the first, 2.52 for the second.

Compared with LLKHPNIVRAHDSISEEGFHYLVF [L10A], LLKHPNIVRWHDSISEEGFHYLVF [L10W] is higher in protein stability index: 2.84 for the first, 3.54 for the second.

First: LLKHPNIVRHHDSISEEGFHYLVF [L10H]
Second: LLKHPNIVRNHDSISEEGFHYLVF [L10N]
The protein stability index of the first is lower: 2.14 for the first, 2.25 for the second.

Going from LLKHPNIVRSHDSISEEGFHYLVF [L10S] to LLKHPNWVRLHDSISEEGFHYLVF [I7W], the protein stability index falls from 1.86 to 1.07.

Going from LLKHPNRVRLHDSISEEGFHYLVF [I7R] to LLKHPNLVRLHDSISEEGFHYLVF [I7L], the protein stability index rises from 2.02 to 2.98.

Compared with LLKHPNIVRLHDSISEEGFHYSVF [L22S], LLKHPNIVRLHDSISEEGFHYKVF [L22K] is higher in protein stability index: 1.81 for the first, 2.54 for the second.

Compared with LLKHPNIVRLHDSISEEGFHYAVF [L22A], LLKHPNIVRLHDSISEEGFHYGVF [L22G] is lower in protein stability index: 3.02 for the first, 1.57 for the second.

First: LLPHPNIVRLHDSISEEGFHYLVF [K3P]
Second: LLCHPNIVRLHDSISEEGFHYLVF [K3C]
The protein stability index of the first is lower: 2.1 for the first, 3.78 for the second.

First: LLNHPNIVRLHDSISEEGFHYLVF [K3N]
Second: LLVHPNIVRLHDSISEEGFHYLVF [K3V]
The protein stability index of the first is higher: 2.22 for the first, 1.78 for the second.

Compared with LLEHPNIVRLHDSISEEGFHYLVF [K3E], LLKHPNIVRLHDKISEEGFHYLVF [S13K] is higher in protein stability index: 2.16 for the first, 2.81 for the second.

Work on LLKHPNIVRLHDVISEEGFHYLVF [S13V] yielded a protein stability index of 3.9.
